Measurements taken from US20140087995A1 (published 2014).
Numbered stars: 1 amine (or outer) side, 2 acyl side, 3 side chain; on linkers, the order of the positions; unused ones are H or OH. Bridge positions count the residues as written; N and C are the ends. Side chains are listed from the residue outwards. Ends that are not written are not given here. * marks the point of attachment. C20 diacid = O=C(O)CCCCCCCCCCCCCCCCCCC(=O)*; γGlu = O=C(O)[C@H](CCC(=O)[*:2])N[*:1]; AEEA = NCCOCCOCC(=O)O

B1: N^ε1-[(4S)-4-carboxy-4-[[(4S)-4-carboxy-4-(19-carboxynonadecanoylamino)butanoyl]amino]butanoyl]-[Glu14,Arg17,Pro21,Pro27,His34]-h-amylin (peptide)
peptide: K([γGlu-γGlu-C20 diacid])CNTATCATQRLAEFLRHSSPNFGAIPSSTNVGHNTY-NH2
modifications: disulfide 2-7; N-terminus assumed
SMILES: CC[C@H](C)[C@H](NC(=O)[C@H](C)NC(=O)CNC(=O)[C@H](Cc1ccccc1)NC(=O)[C@H](CC(N)=O)NC(=O)[C@@H]1CCCN1C(=O)[C@H](CO)NC(=O)[C@H](CO)NC(=O)[C@H](Cc1c[nH]cn1)NC(=O)[C@H](CCCNC(=N)N)NC(=O)[C@H](CC(C)C)NC(=O)[C@H](Cc1ccccc1)NC(=O)[C@H](CCC(=O)O)NC(=O)[C@H](C)NC(=O)[C@H](CC(C)C)NC(=O)[C@H](CCCNC(=N)N)NC(=O)[C@H](CCC(N)=O)NC(=O)[C@@H](NC(=O)[C@H](C)NC(=O)[C@@H]1CSSC[C@H](NC(=O)[C@@H](N)CCCCNC(=O)CC[C@H](NC(=O)CC[C@H](NC(=O)CCCCCCCCCCCCCCCCCCC(=O)O)C(=O)O)C(=O)O)C(=O)N[C@@H](CC(N)=O)C(=O)N[C@@H]([C@@H](C)O)C(=O)N[C@@H](C)C(=O)N[C@@H]([C@@H](C)O)C(=O)N1)[C@@H](C)O)C(=O)N1CCC[C@H]1C(=O)N[C@@H](CO)C(=O)N[C@@H](CO)C(=O)N[C@H](C(=O)N[C@@H](CC(N)=O)C(=O)N[C@H](C(=O)NCC(=O)N[C@@H](Cc1c[nH]cn1)C(=O)N[C@@H](CC(N)=O)C(=O)N[C@H](C(=O)N[C@@H](Cc1ccc(O)cc1)C(N)=O)[C@@H](C)O)C(C)C)[C@@H](C)O
notes: also called compound 87
B2: N^ε1-[2-[2-[2-(19-carboxynonadecanoylamino)ethoxy]ethoxy]acetyl]-[Arg17,Pro21,Pro27,His34]-h-amylin (peptide)
peptide: K([AEEA-C20 diacid])CNTATCATQRLANFLRHSSPNFGAIPSSTNVGHNTY-NH2
modifications: disulfide 2-7; N-terminus assumed
SMILES: CC[C@H](C)[C@H](NC(=O)[C@H](C)NC(=O)CNC(=O)[C@H](Cc1ccccc1)NC(=O)[C@H](CC(N)=O)NC(=O)[C@@H]1CCCN1C(=O)[C@H](CO)NC(=O)[C@H](CO)NC(=O)[C@H](Cc1c[nH]cn1)NC(=O)[C@H](CCCNC(=N)N)NC(=O)[C@H](CC(C)C)NC(=O)[C@H](Cc1ccccc1)NC(=O)[C@H](CC(N)=O)NC(=O)[C@H](C)NC(=O)[C@H](CC(C)C)NC(=O)[C@H](CCCNC(=N)N)NC(=O)[C@H](CCC(N)=O)NC(=O)[C@@H](NC(=O)[C@H](C)NC(=O)[C@@H]1CSSC[C@H](NC(=O)[C@@H](N)CCCCNC(=O)COCCOCCNC(=O)CCCCCCCCCCCCCCCCCCC(=O)O)C(=O)N[C@@H](CC(N)=O)C(=O)N[C@@H]([C@@H](C)O)C(=O)N[C@@H](C)C(=O)N[C@@H]([C@@H](C)O)C(=O)N1)[C@@H](C)O)C(=O)N1CCC[C@H]1C(=O)N[C@@H](CO)C(=O)N[C@@H](CO)C(=O)N[C@H](C(=O)N[C@@H](CC(N)=O)C(=O)N[C@H](C(=O)NCC(=O)N[C@@H](Cc1c[nH]cn1)C(=O)N[C@@H](CC(N)=O)C(=O)N[C@H](C(=O)N[C@@H](Cc1ccc(O)cc1)C(N)=O)[C@@H](C)O)C(C)C)[C@@H](C)O
notes: also called compound 91
B3: N^ε1-[2-[2-[2-(19-carboxynonadecanoylamino)ethoxy]ethoxy]acetyl]-[His14,Arg17,Pro21,Pro27]-h-amylin (peptide)
peptide: K([AEEA-C20 diacid])CNTATCATQRLAHFLRHSSPNFGAIPSSTNVGSNTY-NH2
modifications: disulfide 2-7; N-terminus assumed
SMILES: CC[C@H](C)[C@H](NC(=O)[C@H](C)NC(=O)CNC(=O)[C@H](Cc1ccccc1)NC(=O)[C@H](CC(N)=O)NC(=O)[C@@H]1CCCN1C(=O)[C@H](CO)NC(=O)[C@H](CO)NC(=O)[C@H](Cc1c[nH]cn1)NC(=O)[C@H](CCCNC(=N)N)NC(=O)[C@H](CC(C)C)NC(=O)[C@H](Cc1ccccc1)NC(=O)[C@H](Cc1c[nH]cn1)NC(=O)[C@H](C)NC(=O)[C@H](CC(C)C)NC(=O)[C@H](CCCNC(=N)N)NC(=O)[C@H](CCC(N)=O)NC(=O)[C@@H](NC(=O)[C@H](C)NC(=O)[C@@H]1CSSC[C@H](NC(=O)[C@@H](N)CCCCNC(=O)COCCOCCNC(=O)CCCCCCCCCCCCCCCCCCC(=O)O)C(=O)N[C@@H](CC(N)=O)C(=O)N[C@@H]([C@@H](C)O)C(=O)N[C@@H](C)C(=O)N[C@@H]([C@@H](C)O)C(=O)N1)[C@@H](C)O)C(=O)N1CCC[C@H]1C(=O)N[C@@H](CO)C(=O)N[C@@H](CO)C(=O)N[C@H](C(=O)N[C@@H](CC(N)=O)C(=O)N[C@H](C(=O)NCC(=O)N[C@@H](CO)C(=O)N[C@@H](CC(N)=O)C(=O)N[C@H](C(=O)N[C@@H](Cc1ccc(O)cc1)C(N)=O)[C@@H](C)O)C(C)C)[C@@H](C)O
notes: also called compound 90
B4: N^ε1-[2-[2-[2-[[2-[2-[2-[[(4S)-4-carboxy-4-(19-carboxynonadecanoylamino)butanoyl]amino]ethoxy]ethoxy]acetyl]amino]ethoxy]ethoxy]acetyl]-[Arg17,Pro21,Pro27,Arg34 … (peptide)
peptide: K([AEEA-AEEA-γGlu-C20 diacid])CNTATCATQRLANFLRHSSPNFGAIPSSTNVGRNTY-NH2
modifications: disulfide 2-7; N-terminus assumed
SMILES: CC[C@H](C)[C@H](NC(=O)[C@H](C)NC(=O)CNC(=O)[C@H](Cc1ccccc1)NC(=O)[C@H](CC(N)=O)NC(=O)[C@@H]1CCCN1C(=O)[C@H](CO)NC(=O)[C@H](CO)NC(=O)[C@H](Cc1c[nH]cn1)NC(=O)[C@H](CCCNC(=N)N)NC(=O)[C@H](CC(C)C)NC(=O)[C@H](Cc1ccccc1)NC(=O)[C@H](CC(N)=O)NC(=O)[C@H](C)NC(=O)[C@H](CC(C)C)NC(=O)[C@H](CCCNC(=N)N)NC(=O)[C@H](CCC(N)=O)NC(=O)[C@@H](NC(=O)[C@H](C)NC(=O)[C@@H]1CSSC[C@H](NC(=O)[C@@H](N)CCCCNC(=O)COCCOCCNC(=O)COCCOCCNC(=O)CC[C@H](NC(=O)CCCCCCCCCCCCCCCCCCC(=O)O)C(=O)O)C(=O)N[C@@H](CC(N)=O)C(=O)N[C@@H]([C@@H](C)O)C(=O)N[C@@H](C)C(=O)N[C@@H]([C@@H](C)O)C(=O)N1)[C@@H](C)O)C(=O)N1CCC[C@H]1C(=O)N[C@@H](CO)C(=O)N[C@@H](CO)C(=O)N[C@H](C(=O)N[C@@H](CC(N)=O)C(=O)N[C@H](C(=O)NCC(=O)N[C@@H](CCCNC(=N)N)C(=O)N[C@@H](CC(N)=O)C(=O)N[C@H](C(=O)N[C@@H](Cc1ccc(O)cc1)C(N)=O)[C@@H](C)O)C(C)C)[C@@H](C)O
notes: also called compound 95
B5: N^-1-[(4S)-4-carboxy-4-(19-carboxynonadecanoylamino)butanoyl]-Gly[Arg1,His14,Arg17,Pro21,Pro27,His34]-h-amylin (peptide)
peptide: {C20 diacid-γGlu}-GRCNTATCATQRLAHFLRHSSPNFGAIPSSTNVGHNTY-NH2
modifications: disulfide 3-8
SMILES: CC[C@H](C)[C@H](NC(=O)[C@H](C)NC(=O)CNC(=O)[C@H](Cc1ccccc1)NC(=O)[C@H](CC(N)=O)NC(=O)[C@@H]1CCCN1C(=O)[C@H](CO)NC(=O)[C@H](CO)NC(=O)[C@H](Cc1c[nH]cn1)NC(=O)[C@H](CCCNC(=N)N)NC(=O)[C@H](CC(C)C)NC(=O)[C@H](Cc1ccccc1)NC(=O)[C@H](Cc1c[nH]cn1)NC(=O)[C@H](C)NC(=O)[C@H](CC(C)C)NC(=O)[C@H](CCCNC(=N)N)NC(=O)[C@H](CCC(N)=O)NC(=O)[C@@H](NC(=O)[C@H](C)NC(=O)[C@@H]1CSSC[C@H](NC(=O)[C@H](CCCNC(=N)N)NC(=O)CNC(=O)CC[C@H](NC(=O)CCCCCCCCCCCCCCCCCCC(=O)O)C(=O)O)C(=O)N[C@@H](CC(N)=O)C(=O)N[C@@H]([C@@H](C)O)C(=O)N[C@@H](C)C(=O)N[C@@H]([C@@H](C)O)C(=O)N1)[C@@H](C)O)C(=O)N1CCC[C@H]1C(=O)N[C@@H](CO)C(=O)N[C@@H](CO)C(=O)N[C@H](C(=O)N[C@@H](CC(N)=O)C(=O)N[C@H](C(=O)NCC(=O)N[C@@H](Cc1c[nH]cn1)C(=O)N[C@@H](CC(N)=O)C(=O)N[C@H](C(=O)N[C@@H](Cc1ccc(O)cc1)C(N)=O)[C@@H](C)O)C(C)C)[C@@H](C)O
notes: also called compound 100

The binders below were run against T1, human amylin 3(a) receptor (human calcitonin receptor co-expressed with RAMP-3) (human, UniProt P30988 25-474; O60896 24-148, limits assumed) (assay: cell-based or functional assay).
T1 sequence (looked up) 1: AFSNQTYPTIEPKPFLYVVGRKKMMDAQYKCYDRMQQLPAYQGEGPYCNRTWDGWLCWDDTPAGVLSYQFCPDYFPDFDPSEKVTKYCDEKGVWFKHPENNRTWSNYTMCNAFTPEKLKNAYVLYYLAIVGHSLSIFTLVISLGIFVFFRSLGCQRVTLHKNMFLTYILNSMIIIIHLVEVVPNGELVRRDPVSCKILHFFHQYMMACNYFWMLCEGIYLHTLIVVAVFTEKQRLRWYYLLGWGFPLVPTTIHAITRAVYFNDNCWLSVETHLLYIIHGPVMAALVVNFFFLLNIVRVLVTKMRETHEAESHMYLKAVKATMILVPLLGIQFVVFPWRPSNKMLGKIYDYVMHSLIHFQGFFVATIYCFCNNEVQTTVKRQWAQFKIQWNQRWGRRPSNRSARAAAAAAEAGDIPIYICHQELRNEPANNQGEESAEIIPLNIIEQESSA
T1 sequence (looked up) 2: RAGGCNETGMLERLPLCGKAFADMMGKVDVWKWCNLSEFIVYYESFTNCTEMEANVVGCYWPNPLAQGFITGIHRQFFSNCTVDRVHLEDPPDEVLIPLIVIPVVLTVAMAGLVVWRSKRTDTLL
B1 was tested, and the “hAmylin-R funct. EC50” value was 0.285 nM. B2 was tested, and the “hAmylin-R funct. EC50” value was 0.04 nM. For B3, the “hAmylin-R funct. EC50” value was 0.033 nM. B4 was tested, and the “hAmylin-R funct. EC50” value was 0.651 nM.

These binders were tested against T2, human calcitonin receptor (human, UniProt P30988 25-474) (assay: cell-based or functional assay).
T2 sequence (looked up): T1 sequence (looked up) 1
B1 was tested, and the “Ratio hCT/hAmylin funct.” value was 3.8 and the “hCTR funct. EC50” value was 1.09 nM. For B2, the “Ratio hCT/hAmylin funct.” value was 36.9 and the “hCTR funct. EC50” value was 1.48 nM. With B3 the “Ratio hCT/hAmylin funct.” value was 7.2 and the “hCTR funct. EC50” value was 0.236 nM. For B4, the “Ratio hCT/hAmylin funct.” value was 33 and the “hCTR funct. EC50” value was 21.5 nM.

These binders were tested against T3, human calcitonin receptor (human, UniProt P30988 25-474) (assay: cell-based or functional assay).
T3 sequence (looked up): T1 sequence (looked up) 1
In the case of B5, the “hCTR funct. EC50” value is reported as 1.73 nM.
